# Test results reported in patent publication US12312397B2, “Anti-O2 antibodies and uses thereof” (priority 2016, dated 2025).
# B1: KPL36: Class II anti-O2 antigen human mAb; VH SEQ ID NO: 189, VL SEQ ID NO: 192 (antibody, V domains shown)
# VH: EVQLVESGGGVVQSGGSLRLSCETSGFTFISSWMSWVRQAPGTGLEWVATINPDGTETPYADSLKGRFTISRDNTKKSLYLQIHSLRADDTAVYFCARNKAYNAHDFWGQGTLVMVSS
# VL: QSALTQPPSASGSPGQSVTISCTGTSSDVGGNNFVSWYQQYPGKAPKLIIYEVNKRPSGVPDRFSGSKSGNTASLTVSGLQAEDEADYYCGAFGGSKMFGGGTKLTVL
# modifications: Description of Artificial Sequence: SyntheticKPL36 VH polypeptide; Description of Artificial Sequence: SyntheticKPL36 VL polypeptide
# B2: KPN44: anti-O2 antigen human mAb; VH SEQ ID NO: 62, VL SEQ ID NO: 63 (antibody, V domains shown)
# VH: QVQLQESGPGLVKPSETLSLTCTVSGGSTSSYYWNWIRQAPGKPLQWIANIHHGGTTYYNPSLRSRVTMSLDTSNNQFSLKLTSVTAADTAVYFCARESDDGYRWNYFDYWGQGVLVTVSS
# VL: EIVLTQSPASLSLSPGDRATLSCRASQTITNYLAWYQHKPGQAPRLLIFDMSKRATGIPARFSGSGSGTDFTLTISSLEPEDFAVYYCQHRSNWPLFTFGPGTNVDIK
# modifications: Description of Artificial Sequence: SyntheticKPN44 VH polypeptide; Description of Artificial Sequence: SyntheticKPN44 VL polypeptide
# B3: KPS30: Class I anti-O2 antigen human mAb; VH SEQ ID NO: 125, VL SEQ ID NO: 126 (antibody, V domains shown)
# VH: EMQLVESGGGLVQPGVSLRLSCVDSGFSFSTSWLAWVRQAPGKGLEWLANIDPDGSTRNHVDSVRGRFTISRDNAKNSLYLQMNSLRAEDTAVYYCARDYAYNRFDYWGQGTMVTVSS
# VL: QSALTQPPSASGSPGQSVVISCTGTSSDIGANNYVSWYQQHPGKAPKLLLYEVNKRPSGVPDRFSASKSGNTASLTVSGLLAEDEADYYCCGYGGGRVFGGGTKLTVL
# modifications: Description of Artificial Sequence: SyntheticKPS30 VH polypeptide; Description of Artificial Sequence: SyntheticKPS30 VL polypeptide
# B4: KPN17: Class I anti-O2 antigen human mAb; VH SEQ ID NO: 71, VL SEQ ID NO: 72 (antibody, V domains shown)
# VH: EVQLVESGGGLVQPGGSLRLSCAASGFTFSHFWMHWVRQAPGQGLVWVARIDGSVTNLRYAGSVEGRFTISRDNAKNTLYLQMNSLRDEDTAVYYCARDLVGIGTPAGYGMDVWGQGTTVTVSS
# VL: DIQLTQSPSFLSASVGDRVTITCRASQGISTYLAWYQQKPGKAPKLLIYAASTLQSGVPSRFSGSGSGTEFTLTINSLQSEDFATYYCQQLTSHLYTFGQGTKLEIK
# modifications: Description of Artificial Sequence: SyntheticKPN17 VH polypeptide; Description of Artificial Sequence: SyntheticKPN17 VL polypeptide
# B5: KPS24: Class III anti-O2 antigen human mAb; VH SEQ ID NO: 107, VL SEQ ID NO: 108 (antibody, V domains shown)
# VH: ELHLVESGGGLVKPGGSLRLSCAASGFTFKNAWMSWIRQAPGKGLEWVGRVKSEVDGGTTDYGVPVRGRFTISRDDSQSTLSLEMSSLQDDDTGVYYCRAFWSDFQTGYWGQGTLVTVSS
# VL: QSVLTQPPSVSAAPGQTVTIACSGSSSNIGSDSVSWFQQLPGTAPRVLMYENNKRPSGISDRFSGSKSGTSVTLGITGLQTGDEADYYCAAWDSSLRAYVFGSGTKVTVL
# modifications: Description of Artificial Sequence: SyntheticKPS24 VH polypeptide; Description of Artificial Sequence: SyntheticKPS24 VL polypeptide
# How the values were obtained:
# [1] = system: K. pneumoniae 8570ΔcpsBLux (O2); experiment: Opsonophagocytic killing (OPK) assay, O2 capsule mutant; format: cell-based, Klebsiella pneumoniae; parameters: key to D Capsule OPK O2: +++: Strongly positive activity; +: Positive activity; +/−: Somewhat positive depending upon the test conditions; settings: for D Capsule OPK O2: capsule mutant strain 8570ΔcpsB lux (O2); for OPK activity against O2 capsule mutant: secondary screening
# Procedure: (§1) OPK activity of anti-O2 LPS mAbs was tested against O1 and O2 strains. Briefly, log phase cultures of luminescent K. pneumoniae strains 8570ΔcpsBLux (O2) and 43816ΔcpsBLux (O1) were diluted to ˜2×10^6 cells/ml. K. pneumoniae cells, 5e5/well dimethylformamide (DMF) differentiated HL-60 cells, cleared baby rabbit serum (1:10 Cedarlane), and a series dilution of antibodies (2 ng-2.5 μg/mL) were mixed in 96-well plates and incubated at 37° C. for two hours with shaking (250 rpm). The relative light units (RLUs) were then measured using a multi-mode microplate reader (Synergy 2, Biotek or envision multilabel plate reader, Perkin Elmer). The percentage of killing was determined by comparing RLU derived from assays with no antibodies to RLU derived from assays with anti-K. pneumoniae mAbs and assays performed with a negative control mAb. Positive killing was determined where the percentage of killing is above 40%.
# [2] = system: O1 LPS activation of NF-κB in RAW264.7-lux cells; experiment: LPS neutralization assay (NF-κB luciferase, RAW264.7-lux), O1 LPS; format: cell-based, murine; settings: for neutralizing activity against O1 LPS (NF-κB activation): human IgG1 format; for neutralization of LPS-O1: secondary screening
# Procedure: (§2) Activation of TLR4 receptors by bacterial LPS leads to downstream activation of the NF-κB transcriptional regulator. A decrease in induction of NF-κB-responsive luciferase activity was used to quantify LPS neutralization activity by LPS mAbs. A murine RAW264.7 macrophage cell line was engineered to carry a firefly luciferase reporter gene under the control of an NF-κB-responsive promoter (RAW264.7-lux). Serially diluted antibody stocks were mixed with LPS in a 1:1 ratio and incubated at 4° C. for 1 hr. Antibody/LPS mixtures were then diluted 1:10 into assay plates containing pre-seeded RAW264.7-lux cells (4e5 cells/well), which were then placed at 37° C. with 5% CO2 for 2.5 hours. Following incubations, Steady Glo solution (Promega) was added to each well and incubated for another 20 min protected from light. The relative light units (RLUs) were measured using a multi-mode microplate reader (Synergy 2, Biotek or envision multilabel plate reader, Perkin Elmer). The percentage of inhibition was determined by comparing RLU derived from assays with no antibodies to RLU derived from assays with anti-K. pneumoniae mAbs and assays performed with a negative control mAb. […] All mAbs were tested in human IgG1 format.
# [3] = system: O2 LPS activation of NF-κB in RAW264.7-lux cells; experiment: LPS neutralization assay (NF-κB luciferase, RAW264.7-lux), O2 LPS; format: cell-based, murine; parameters: key to LPS Neut O2: +++: Strongly positive activity; +: Positive activity; +/−: Somewhat positive depending upon the test conditions; settings: for LPS Neut O2: Table 7 summary; for neutralizing activity against O2 LPS (NF-κB activation): human IgG1 format; for neutralization of LPS-O2: secondary screening
# Procedure: as §2
# O2 LPS = experiment: ELISA binding to O2 LPS; parameters: species or system Klebsiella pneumoniae; settings: secondary screening, ELISA
# Procedure: (§3) The coated plates were incubated with cell culture supernatants from polyclonally stimulated lymphocytes (AMVBRA) or from monoclonal immortalized B cells (donor interrogations) containing fully human antibodies or with diluted plasma samples (PBMC donor selections) for 1 hour at room temperature. The plates were then washed with PBS containing 0.1% Tween-20 (PBS-T). Secondary antibody was added; either Alkaline Phosphatase-conjugated Goat Anti-Human IgG-AP (Southern Biotech, 2040-04, 1:1000 in PBS-B) or Peroxidase AffiniPure F(ab′)2 Fragment Goat Anti-Human IgG, Fc Fragment Specific (Jackson ImmunoResearch #309 036 098, 1:5000 in PBS-B) were used. Secondary antibodies were typically incubated for 1 h. Plates were washed three times with PBS-T, and P-NitroPhenyl Phosphate (pNPP, Sigma-Aldrich, cat #N2765-100TAB) or Sureblue (KPL, 53-00-03) substrates were added and incubated for 10 min or until the development of a colorimetric reaction. In the case of the HRP substrate Sureblue, the reaction was stopped by adding an equal volume of 0.2N HCl. The absorbance at 405 nm (pNPP) or 450 nm (Sureblue) was measured by a microplate reader (Biotek, Elx808).
# (§4) The coated plates were incubated with serial dilutions of the monoclonal antibodies for 1 hour at room temperature. The plates were then washed with PBS containing 0.1% Tween-20 (PBS-T). Alkaline Phosphatase-conjugated Goat Anti-Human IgG (Southern Biotech, 2040-04, 1:1000 in PBS-B) was added. The secondary antibody reactions were incubated for 1 h. Plates were washed three times with PBS-T, and P-NitroPhenyl Phosphate (pNPP, Sigma-Aldrich, cat #N2765-100TAB) substrate was added and incubated for 30 min or until the development of a colorimetric reaction. The absorbance at 405 nm was measured by a microplate reader (Biotek, Elx808). The data was plotted with Graphpad Prism software. Representative mAbs from each class were tested for their binding to O1 LPS (FIG. 2A) and O2 LPS (FIG. 2B), and EC50 values were obtained (FIG. 2C). The majority of the anti-O2 LPS mAbs bound to both O1 and O2 LPS by ELISA. […] None of these LPS mAbs bound to the 03, 04, 05, 07, or 012 LPS serotypes (see e.g., FIG. 1A).
# O1 LPS = experiment: ELISA binding to O1 LPS; parameters: species or system Klebsiella pneumoniae; settings: secondary screening
# Procedure: as §3, §4
# [4] = system: K. pneumoniae 43816ΔcpsBLux (O1); experiment: Opsonophagocytic killing (OPK) assay, O1 capsule mutant; format: cell-based, Klebsiella pneumoniae; parameters: key to D Capsule OPK O1: +++: Strongly positive activity; +: Positive activity; +/−: Somewhat positive depending upon the test conditions; settings: capsule mutant strain 43816ΔcpsB lux (O1)
# Procedure: as §1
Molecule,D Capsule OPK O2 [1],neutralizing activity against O1 LPS (NF-κB activation) [2],LPS Neut O2 [3],neutralizing activity against O2 LPS (NF-κB activation) [3],neutralization of LPS-O2 [3],binding to LPS-O2 (O2 LPS),binding to LPS-O1 (O1 LPS),D Capsule OPK O1 [4],OPK activity against O2 capsule mutant [1],neutralization of LPS-O1 [2]
B1,+,no activity,+,moderate neutralizing activity,neutralize,confirmed to bind,confirmed to bind,+,–,–
B2,–,blocked,–,blocked,neutralize,bind,bind,–,showed OPK activity,neutralize
B3,+++,–,–,–,neutralized,bound,bound,–,strong OPK activity,neutralized
B4,+,no activity,+/−,moderate neutralizing activity,neutralize,bind,bind,–,showed OPK activity,–
B5,+++,no activity,+/−,moderate neutralizing activity,neutralized,bound specifically,–,–,strong OPK activity,–
